Test results taken from PMC5832849.

Biological target: scFvD8 mutant (scFvD8-M), L96Tyr to Ser and H98Asp to Ser (mouse)
Assay: ELISA; competitive: scFv at 0.5 nM pre-incubated with preS1 recombinant protein (1000 to 0.01 nM in PBST) at 37 °C for 1 h, then added to plates coated with 100 nM preS1, room temperature 30 min; detected with HRP-labelled anti-SUMO antibody; relative affinity

Chain of scFvD8 mutant (scFvD8-M), L96Tyr to Ser and H98Asp to Ser (mouse) (heavy, as listed by the source, chain 1 of 2): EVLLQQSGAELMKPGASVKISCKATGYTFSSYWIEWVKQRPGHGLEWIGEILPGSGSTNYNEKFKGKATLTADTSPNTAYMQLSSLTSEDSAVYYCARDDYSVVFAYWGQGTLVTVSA
Chain of scFvD8 mutant (scFvD8-M), L96Tyr to Ser and H98Asp to Ser (mouse) (light, as listed by the source, chain 2 of 2): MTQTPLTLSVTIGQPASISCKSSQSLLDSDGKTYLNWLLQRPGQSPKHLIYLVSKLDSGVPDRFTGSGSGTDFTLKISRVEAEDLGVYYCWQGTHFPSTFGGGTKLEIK

relative affinity (concentration at 50% protein binding saturation): 5 nM
Substance: HBV preS1 recombinant protein (domain or fragment)
